# Test results taken from publication PMC4705524.
# Assays:
# [1] = target: Pfs25-IMX313 (HEK293 cells, pENTR4-LPTOS shuttle plasmid) (Plasmodium falciparum | chicken) (UniProt P13829); assay: non-reducing SDS-PAGE with western blot; 15 μL supernatant of transfected HEK293 cells per lane, reduced and non-reduced conditions, detected with anti-Pfs25 mAb 4B7
# [2] = target: Pfs25-IMX313 protein-nanoparticle (P. pastoris) (Plasmodium falciparum | chicken) (UniProt P13829); assay: non-reducing SDS-PAGE with western blot; protein purified from P. pastoris supernatant, 500 ng per lane, reduced and non-reduced conditions, detected with anti-Pfs25 mAb 4B7
Substance,stoichiometry N [1],stoichiometry N [2]
"Pfs25-IMX313 (HEK293 cells, pENTR4-LPTOS shuttle plasmid) (from UniProt P13829 22-193)",7,
Pfs25-IMX313 protein-nanoparticle (P. pastoris) (from UniProt P13829 22-193),,7
